Measured values as given in patent publication EP4707292A2 (The University of North Carolina at Chapel Hill, dated 2026).

B1: Fibrinogen beta chain (other)
chain: GHRPLDKKREEAPSLRPAPPPISGGGYRARPAKAAATQKKVERKAPDAGGCLHADPDLGVLCPTGCQLQEALLQQERPIRNSVDELNNNVEAVSQTSSSSFQYMYLLKDLWQKRQKQVKDNENVVNEYSSELEKHQLYIDETVNSNIPTNLRVLRSILENLRSKIQKLESDVSAQMEYCRTPCTVSCNIPVVSGKECEEIIRKGGETSEMYLIQPDSSVKPYRVYCDMNTENGGWTVIQNRQDGSVDFGRKWDPYKQGFGNVATNTDGKNYCGLPGEYWLGNDKISQLTRMGPTELLIEMEDWKGDKVKAHYGGFTVQNEANKYQISVNKYRGTAGNALMDGASQLMGENRTMTIHNGMFFSTYDRDNDGWLTSDPRKQCSKEDGGGWWYNRCHAANPNGRYYWGGQYTWDMAKHGTDDGVVWMNWKGSWYSMRKMSMKIRPFFPQQ
notes: also called FGB
B2: Ig gamma-3 chain C region (other)
chain: ASTKGPSVFPLAPCSRSTSGGTAALGCLVKDYFPEPVTVSWNSGALTSGVHTFPAVLQSSGLYSLSSVVTVPSSSLGTQTYTCNVNHKPSNTKVDKRVELKTPLGDTTHTCPRCPEPKSCDTPPPCPRCPEPKSCDTPPPCPRCPEPKSCDTPPPCPRCPAPELLGGPSVFLFPPKPKDTLMISRTPEVTCVVVDVSHEDPEVQFKWYVDGVEVHNAKTKPREEQYNSTFRVVSVLTVLHQDWLNGKEYKCKVSNKALPAPIEKTISKTKGQPREPQVYTLPPSREEMTKNQVSLTCLVKGFYPSDIAVEWESSGQPENNYNTTPPMLDSDGSFFLYSKLTVDKSRWQQGNIFSCSVMHEALHNRFTQKSLSLSPGK
notes: also called IGHG3
B3: Isoform 2 of Haptoglobin-related protein (other)
chain: MHVCVCVCVCVYMPVCVDACMCCEAGRPAFRSFLFSLCSDLGAVISLLLWGRQLFALYSGNDVTDISDDRFPKPPEIANGYVEHLFRYQCKNYYRLRTEGDGVYTLNDKKQWINKAVGDKLPECEAVCGKPKNPANPVQRILGGHLDAKGSFPWQAKMVSHHNLTTGATLINEQWLLTTAKNLFLNHSENATAKDIAPTLTLYVGKKQLVEIEKVVLHPNYHQVDIGLIKLKQKVLVNERVMPICLPSKNYAEVGRVGYVSGWGQSDNFKLTDHLKYVMLPVADQYDCITHYEGSTCPKWKAPKSPVGVQPILNEHTFCVGMSKYQEDTCYGDAGSAFAVHDLEEDTWYAAGILSFDKSCAVAEYGVYVKVTSIQHWVQKTIAEN
notes: also called HPR
B4: Apolipoprotein C-I (other)
chain: TPDVSSALDKLKEFGNTLEDKARELISRIKQSELSAKMREWFSETFQKVKEKLKIDS
notes: also called APOC1
B5: Isoform 2 of Ig mu chain C region (other)
chain: GSASAPTLFPLVSCENSPSDTSSVAVGCLAQDFLPDSITFSWKYKNNSDISSTRGFPSVLRGGKYAATSQVLLPSKDVMQGTDEHVVCKVQHPNGNKEKNVPLPVIAELPPKVSVFVPPRDGFFGNPRKSKLICQATGFSPRQIQVSWLREGKQVGSGVTTDQVQAEAKESGPTTYKVTSTLTIKESDWLGQSMFTCRVDHRGLTFQQNASSMCVPDQDTAIRVFAIPPSFASIFLTKSTKLTCLVTDLTTYDSVTISWTRQNGEAVKTHTNISESHPNATFSAVGEASICEDDWNSGERFTCTVTHTDLPSPLKQTISRPKGVALHRPDVYLLPPAREQLNLRESATITCLVTGFSPADVFVQWMQRGQPLSPEKYVTSAPMPEPQAPGRYFAHSILTVSEEEWNTGETYTCVVAHEALPNRVTERTVDKSTEGEVSADEEGFENLWATASTFIVLFLLSLFYSTTVTLFKVK
notes: also called IGHM
B6: Kininogen-1 (other)
chain: QESQSEEIDCNDKDLFKAVDAALKKYNSQNQSNNQFVLYRITEATKTVGSDTFYSFKYEIKEGDCPVQSGKTWQDCEYKDAAKAATGECTATVGKRSSTKFSVATQTCQITPAEGPVVTAQYDCLGCVHPISTQSPDLEPILRHGIQYFNNNTQHSSLFMLNEVKRAQRQVVAGLNFRITYSIVQTNCSKENFLFLTPDCKSLWNGDTGECTDNAYIDIQLRIASFSQNCDIYPGKDFVQPPTKICVGCPRDIPTNSPELEETLTHTITKLNAENNATFYFKIDNVKKARVQVVAGKKYFIDFVARETTCSKESNEELTESCETKKLGQSLDCNAEVYVVPWEKKIYPTVNCQPLGMISLMKRPPGFSPFRSSRIGEIKEETTVSPPHTSMAPAQDEERDSGKEQGHTRRHDWGHEKQRKHNLGHGHKHERDQGHGHQRGHGLGHGHEQQHGLGHGHKFKLDDDLEHQGGHVLDHGHKHKHGHGHGKHKNKGKKNGKHNGWKTEHLASSSEDSTTPSAQTQEKTEGPTPIPSLAKPGVTVTFSDFQDSDLIATMMPPISPAPIQSDDDWIPDIQIDPNGLSFNPISDFPDTTSPKCPGRPWKSVSEINPTTQMKESYYFDLTDGLS
notes: also called KNG1
B7: Fibrinogen alpha chain (other)
chain: GPRVVERHQSACKDSDWPFCSDEDWNYKCPSGCRMKGLIDEVNQDFTNRINKLKNSLFEYQKNNKDSHSLTTNIMEILRGDFSSANNRDNTYNRVSEDLRSRIEVLKRKVIEKVQHIQLLQKNVRAQLVDMKRLEVDIDIKIRSCRGSCSRALAREVDLKDYEDQQKQLEQVIAKDLLPSRDRQHLPLIKMKPVPDLVPGNFKSQLQKVPPEWKALTDMPQMRMELERPGGNEITRGGSTSYGTGSETESPRNPSSAGSWNSGSSGPGSTGNRNPGSSGTGGTATWKPGSSGPGSTGSWNSGSSGTGSTGNQNPGSPRPGSTGTWNPGSSERGSAGHWTSESSVSGSTGQWHSESGSFRPDSPGSGNARPNNPDWGTFEEVSGNVSPGTRREYHTEKLVTSKGDKELRTGKEKVTSGSTTTTRRSCSKTVTKTVIGPDGHKEVTKEVVTSEDGSDCPEAMDLGTLSGIGTLDGFRHRHPDEAAFFDTASTGKTFPGFFSPMLGEFVSETESRGSESGIFTNTKESSSHHPGIAEFPSRGKSSSYSKQFTSSTSYNRGDSTFESKSYKMADEAGSEADHEGTHSTKRGHAKSRPVRDCDDVLQTHPSGTQSGIFNIKLPGSSKIFSVYCDQETSLGGWLLIQQRMDGSLNFNRTWQDYKRGFGSLNDEGEGEFWLGNDYLHLLTQRGSVLRVELEDWAGNEAYAEYHFRVGSEAEGYALQVSSYEGTAGDALIEGSVEEGAEYTSHNNMQFSTFDRDADQWEENCAEVYGGGWWYNNCQAANLNGIYYPGGSYDPRNNSPYEIENGVVWVSFRGADYSLRAVRMKIRPLVTQ
notes: from human serum, identified by MS; also called FGA
B8: Ig gamma-2 chain C region (other)
chain: ASTKGPSVFPLAPCSRSTSESTAALGCLVKDYFPEPVTVSWNSGALTSGVHTFPAVLQSSGLYSLSSVVTVPSSNFGTQTYTCNVDHKPSNTKVDKTVERKCCVECPPCPAPPVAGPSVFLFPPKPKDTLMISRTPEVTCVVVDVSHEDPEVQFNWYVDGVEVHNAKTKPREEQFNSTFRVVSVLTVVHQDWLNGKEYKCKVSNKGLPAPIEKTISKTKGQPREPQVYTLPPSREEMTKNQVSLTCLVKGFYPSDISVEWESNGQPENNYKTTPPMLDSDGSFFLYSKLTVDKSRWQQGNVFSCSVMHEALHNHYTQKSLSLSPGK
notes: also called IGHG2
B9: Beta-2-glycoprotein 1 (other)
chain: GRTCPKPDDLPFSTVVPLKTFYEPGEEITYSCKPGYVSRGGMRKFICPLTGLWPINTLKCTPRVCPFAGILENGAVRYTTFEYPNTISFSCNTGFYLNGADSAKCTEEGKWSPELPVCAPIICPPPSIPTFATLRVYKPSAGNNSLYRDTAVFECLPQHAMFGNDTITCTTHGNWTKLPECREVKCPFPSRPDNGFVNYPAKPTLYYKDKATFGCHDGYSLDGPEEIECTKLGNWSAMPSCKASCKVPVKKATVVYQGERVKIQEKFKNGMLHGDKVSFFCKNKEKKCSYTEDAQCIDGTIEVPKCFKEHSSLAFWKTDASDVKPC
notes: also called APOH

Experiments:
[1] = target: T1, Adeno-associated virus 9 (AAV9) virion (adeno-associated virus 9); test: co-IP with ADK9/LC-MS/MS, AAV9 + human serum vs control
T1 construct: Intact virion; capsid of VP1, VP2, VP3; also called AAV9/luc; AAV9 capsid

[2] = target: T2, Adeno-associated virus 8 (AAV8) virion (adeno-associated virus 8); test: co-IP/LC-MS/MS, AAV8 + human serum vs PBS control
T2 construct: Intact virion with packaged vector genome; capsid of 60 subunits (VP1, VP2, VP3, overlapping products of one cap gene); also called AAV8/luc; AAV8 capsid

[3] = target: T1, Adeno-associated virus 9 (AAV9) virion; test: co-IP with ADK9/LC-MS/MS, AAV9 + human serum vs control; remark: listed apart in the source

Row | Binder | Fold increase [1] [fold] | fold change [2] [fold] | fold change [3] [fold]
1 | B1 | 4.97 | 1.43 | 1.43
2 | B2 |  | 6.33 | 6.33
3 | B3 |  | 2.82 | 2.82
4 | B4 |  | 2 | 2
5 | B5 |  | 3 | 3
6 | B6 |  | 0.419 | 0.419
7 | B7 | 4.95 | 1.75 | 1.75
8 | B8 |  | 5.06 | 5.06
9 | B9 |  | 3.43 | 3.43
